According to article PMC5387714:

Legend:
Phe176 CD16a (human) [1] = molecular target: Phe176 CD16a (human) (UniProt P08637); assay: MST; ligands (HER2, CD16a, FcRn) labelled with RED-NHS; 10 μL labelled ligand mixed with 10 μL gradient mAb; Monolith NT.115, 40% IR-laser power; fit with the Hill equation in Prism
Val176 CD16a (human) = Val176 CD16a (human) (UniProt P08637); assay: as above
Human FcRn (human) = Human FcRn (human) (UniProt P55899); assay: as above
Phe176 CD16a (human) [2] = molecular target: Phe176 CD16a (human) (UniProt P08637)

UniProt P55899, sequence (P55899 24-297): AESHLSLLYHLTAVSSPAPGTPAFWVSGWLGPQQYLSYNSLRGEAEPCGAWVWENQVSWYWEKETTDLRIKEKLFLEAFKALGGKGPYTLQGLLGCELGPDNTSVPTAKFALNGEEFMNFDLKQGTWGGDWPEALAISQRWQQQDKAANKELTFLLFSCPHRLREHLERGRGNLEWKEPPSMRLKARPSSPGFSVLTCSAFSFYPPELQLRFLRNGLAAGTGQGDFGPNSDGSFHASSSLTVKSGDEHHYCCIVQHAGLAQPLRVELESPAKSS

| Kd (Phe176 CD16a (human) [1]) | Kd (Val176 CD16a (human)) | Kd (Human FcRn (human)) | ADCC (LDH release), SK-BR-3 target cells, human PBMCs as effector cells, E/T 50/1; fold against pertuzumab^Fuc+SA+; allotype of the donors' FcγRIIIa not stated (Phe176 CD16a (human) [2]) | Substance |
| --- | --- | --- | --- | --- |
| 1310 pM | 350 pM | 860 pM |  | Pertuzumab^Fuc+SA+ (antibody) |
| 450 pM |  | 830 pM |  | Pertuzumab^Fuc+SA− (antibody) |
| 290 pM |  | 840 pM |  | Pertuzumab^Fuc−SA+ (antibody) |
| 130 pM | 20 pM | 820 pM | 20 fold | Pertuzumab^Fuc−SA− (antibody) |
